Data reported in PMC3784150, “Characterization of C-S Lyase from C. diphtheriae: A Possible Target for New Antimicrobial Drugs” (BioMed Research International, 2013).

Experiments:
C-S lyase = target: T1, C-S lyase (Corynebacterium diphtheriae, UniProt Q6NFZ9); assay: fluorescence titration of apoenzyme (emission at […] nm); assay type: binding
T1 construct: gene aecD; recombinant His-tagged apoenzyme

[1] = tested on: N[C@@H](CCSC[C@H](N)C(=O)O)C(=O)O; assay: purified protein; conditions: PLP; pH 9.0; 30.0 °C
N[C@@H](CS)C(=O)O = assay: purified protein; conditions: PLP
[2] = tested on: N[C@@H](CCSC[C@H](N)C(=O)O)C(=O)O; assay: steady-state kinetics, Km; assay type: biochemical, Corynebacterium diphtheriae; conditions: PLP; pH 9.0; 30.0 °C
[3] = target: pyridoxal-5′-phosphate (PLP-) dependent C-S lyase from Corynebacterium diphtheriae (Corynebacterium diphtheriae); assay: SEC; analytical Superdex 200 HR 10/30, 20 mM sodium phosphate pH 7.2, 150 mM NaCl, 0.1 mL/min; calibrated with mass standards 12.4-669 kDa; apparent mass 85 kDa against about 44 kDa for the subunit

Cc1ncc(COP(=O)(O)O)c(C=O)c1O [PLP, pyridoxal-5′-phosphate]
Kd (C-S lyase): 90 ± 30 nM

C-S lyase (Corynebacterium diphtheriae NCTC 13129)
Km [1]: 1070 ± 220 µM | kcat [1]: 92.7 ± 4.44 s⁻¹ | Km (N[C@@H](CS)C(=O)O): 950 ± 180 µM

C-S lyase (Corynebacterium diphtheriae NCTC 13129; Y114F)
Km [2]: 200 ± 10 µM | kcat [2]: 1.2 ± 0.02 s⁻¹

pyridoxal-5′-phosphate (PLP-) dependent C-S lyase from Corynebacterium diphtheriae (enzyme)
stoichiometry N [3]: 2
